Test results: patent US20070020327A1

Experiments:
HLA-A*2401 (human) [1] = test: competition with 125I-labelled standard peptide for purified HLA, gel filtration; relative binding
HLA-A*2401 (human) [2] = test: competition with a 125I-labelled standard peptide for purified HLA, gel filtration
HLA-A*2401 (human) [3] = test: competitive inhibition of 125I-labelled standard peptide binding to purified HLA, gel filtration
HLA-A*2401 (human) [4] = test: competition with 125I-labelled standard peptide for purified HLA, gel filtration
HLA-A*2401 (human) [5] = test: inhibition of binding of a 125I-labelled standard peptide to purified HLA, gel filtration
HLA-A*2401 (human) [6] = test: competition with a 125I-labelled standard peptide for purified HLA class I, bound and free peptide separated by gel filtration
HLA-A*2401 (human) [7] = test: competition with 125I-labeled probe peptide for purified HLA, gel filtration; details: scale: ratio
[8] = target: HLA-A*2401 molecule, purified HLA class I (human); test: competition with 125I-labelled probe peptide for purified HLA, gel filtration; relative binding
HLA-A*2401 (human) [9] = test: competition with a 125I-labelled standard peptide for purified HLA, gel filtration; value relative to the standard peptide

… (PSA, position 54) (peptide)
binding affinity ratio (IC50 of standard peptide / IC50 of test peptide) (HLA-A*2401 (human) [1]): 0.0007

PSA peptide … (position 2, 10 amino acids)
binding affinity ratio (IC50 of the standard peptide / IC50 of the test peptide) (HLA-A*2401 (human) [2]): 0.0062

PAP peptide … (position 183, 9 amino acids)
binding affinity ratio (IC50 of standard peptide / IC50 of test peptide) (HLA-A*2401 (human) [3]): 0.11

PSM peptide … (position 31, 9 amino acids)
binding affinity ratio (IC50 of the standard peptide / IC50 of the test peptide) (HLA-A*2401 (human) [4]): 0.019

PAP peptide … (position 41, 10 amino acids)
binding affinity ratio (IC50 of the standard peptide / IC50 of the test peptide) (HLA-A*2401 (human) [2]): 0.0005

PSM peptide … (position 638, 9 amino acids)
binding affinity ratio (IC50 of standard peptide / IC50 of test peptide) (HLA-A*2401 (human) [3]): 0.0001

PAP peptide … (position 309, 10 amino acids)
binding affinity ratio (IC50 of standard peptide / IC50 of test peptide) (HLA-A*2401 (human) [3]): 0.024

PAP peptide … (position 205, 9 amino acids)
binding affinity ratio (IC50 of the standard peptide / IC50 of the test peptide) (HLA-A*2401 (human) [5]): 0.0024

… (PSM, position 668, 9 amino acids) (peptide)
binding affinity ratio (IC50 of the standard peptide / IC50 of the test peptide) (HLA-A*2401 (human) [4]): 0.0075

PAP peptide … (position 17, 9 amino acids)
binding affinity ratio (IC50 of the standard peptide / IC50 of the test peptide) (HLA-A*2401 (human) [4]): 0.0016

PSM peptide …, position 409, 10 amino acids
binding affinity ratio (IC50 of the standard peptide / IC50 of the test peptide) (HLA-A*2401 (human) [6]): 0.054

… (PSA, position 224) (peptide)
binding affinity ratio (IC50 of standard peptide / IC50 of test peptide) (HLA-A*2401 (human) [1]): 0.0001

PAP peptide … (position 123, 9 amino acids)
binding affinity ratio (IC50 of the standard peptide / IC50 of the test peptide) (HLA-A*2401 (human) [5]): 0.0033

PSA peptide … (position 2, 9 amino acids)
binding affinity ratio (IC50 of the standard peptide / IC50 of the test peptide) (HLA-A*2401 (human) [2]): 2.1

PSM peptide … (position 178, 9 amino acids)
binding affinity ratio (IC50 of standard peptide / IC50 of test peptide) (HLA-A*2401 (human) [3]): 0.77

PAP peptide … (position 83, 10 amino acids)
binding affinity ratio (relative to standard peptide) (HLA-A*2401 (human) [7]): 0.0067

PAP peptide … (position 62, 9 amino acids)
binding affinity ratio (IC50 of the standard peptide / IC50 of the test peptide) [8]: 0.0013

… (PSM, position 227, 9 amino acids) (peptide)
binding affinity ratio (IC50 of the standard peptide / IC50 of the test peptide) (HLA-A*2401 (human) [4]): 0.44

… (PSM, position 178) (peptide)
binding affinity ratio (IC50 of standard peptide / IC50 of test peptide) (HLA-A*2401 (human) [1]): 0.77

PSA peptide …, position 244, 10 amino acids
binding affinity ratio (IC50 of the standard peptide / IC50 of the test peptide) (HLA-A*2401 (human) [6]): 0.055

PAP peptide … (position 23, 9 amino acids)
binding affinity ratio (IC50 of the standard peptide / IC50 of the test peptide) (HLA-A*2401 (human) [4]): 0.0017

… (PAP, position 213, 9 amino acids) (peptide)
binding affinity ratio (IC50 of the standard peptide / IC50 of the test peptide) (HLA-A*2401 (human) [4]): 0.44

PSM peptide … (position 32, 10 amino acids)
binding affinity ratio (IC50 of the standard peptide / IC50 of the test peptide) (HLA-A*2401 (human) [4]): 0.0026

PSA peptide …, position 152, 10 amino acids
binding affinity ratio (IC50 of the standard peptide / IC50 of the test peptide) (HLA-A*2401 (human) [6]): 0.0001

… (PSA, position 96, 11 amino acids) (peptide)
binding affinity ratio (IC50 of the standard peptide / IC50 of the test peptide) (HLA-A*2401 (human) [4]): 0.12

PSA peptide … (position 9, 9 amino acids)
binding affinity ratio (IC50 of the standard peptide / IC50 of the test peptide) (HLA-A*2401 (human) [2]): 0.11

PAP peptide … (position 123, 10 amino acids)
binding affinity ratio (IC50 of the standard peptide / IC50 of the test peptide) (HLA-A*2401 (human) [5]): 0.014

… (PSM, position 74, 10 amino acids) (peptide)
binding affinity ratio (IC50 of the standard peptide / IC50 of the test peptide) (HLA-A*2401 (human) [4]): 0.23

… (PAP, position 96) (peptide)
binding affinity ratio (IC50 of standard peptide / IC50 of test peptide) (HLA-A*2401 (human) [1]): 0.26

PSM peptide … (position 582, 10 amino acids)
binding affinity ratio (IC50 of the standard peptide / IC50 of the test peptide) (HLA-A*2401 (human) [4]): 0.0002

PSA peptide … (position 190, 9 amino acids)
binding affinity ratio (IC50 of the standard peptide / IC50 of the test peptide) (HLA-A*2401 (human) [5]): 0.031

Kallikrein (hK2) peptide …, position 156, 10 amino acids
binding affinity ratio (IC50 of the standard peptide / IC50 of the test peptide) (HLA-A*2401 (human) [6]): 0.0001

PAP peptide … (position 17, 10 amino acids)
binding affinity ratio (IC50 of the standard peptide / IC50 of the test peptide) (HLA-A*2401 (human) [4]): 0.0007

PAP peptide … (position 302, 9 amino acids)
binding affinity ratio (IC50 of the standard peptide / IC50 of the test peptide) (HLA-A*2401 (human) [9]): 0.032

… (PAP, position 318, 9 amino acids) (peptide)
binding affinity ratio (IC50 of the standard peptide / IC50 of the test peptide) (HLA-A*2401 (human) [4]): 2.5

… (PAP, position 70, 10 amino acids) (peptide)
binding affinity ratio (IC50 of the standard peptide / IC50 of the test peptide) (HLA-A*2401 (human) [4]): 0.0022

… (PSM, position 624) (peptide)
binding affinity ratio (IC50 of standard peptide / IC50 of test peptide) (HLA-A*2401 (human) [1]): 3.2

PSM peptide … (position 565, 10 amino acids)
binding affinity ratio (IC50 of the standard peptide / IC50 of the test peptide) (HLA-A*2401 (human) [4]): 1.1

PSM peptide … (position 624, 10 amino acids)
binding affinity ratio (IC50 of the standard peptide / IC50 of the test peptide) (HLA-A*2401 (human) [2]): 3.2

PSA peptide … (position 9, 10 amino acids)
binding affinity ratio (IC50 of the standard peptide / IC50 of the test peptide) (HLA-A*2401 (human) [2]): 0.36

PSM peptide … (position 606, 9 amino acids)
binding affinity ratio (IC50 of the standard peptide / IC50 of the test peptide) (HLA-A*2401 (human) [5]): 12

PAP peptide … (position 96, 9 amino acids)
binding affinity ratio (IC50 of the standard peptide / IC50 of the test peptide) [8]: 0.26

Kallikrein (hK2) peptide …, position 248, 10 amino acids
binding affinity ratio (IC50 of the standard peptide / IC50 of the test peptide) (HLA-A*2401 (human) [6]): 0.055

PSA peptide … (position 98, 9 amino acids)
binding affinity ratio (relative to standard peptide) (HLA-A*2401 (human) [7]): 0.0001

PAP peptide … (position 22, 10 amino acids)
binding affinity ratio (IC50 of the standard peptide / IC50 of the test peptide) (HLA-A*2401 (human) [5]): 0.0045

PSM peptide … (position 621, 9 amino acids)
binding affinity ratio (relative to standard peptide) (HLA-A*2401 (human) [7]): 0.001

PSA peptide … (position 224, 9 amino acids)
binding affinity ratio (IC50 of the standard peptide / IC50 of the test peptide) [8]: 0.0001
